# According to patent publication US20220306739A1 (Janssen / Centocor, published 2022):
# T1: TRBC2 TCR on HPB-ALL cells (human, UniProt A0A5B9 1-178)
# T1 construct: whole, on cells; Only the constant domain is named; also called HPB-ALL cell line that endogenously expresses TRBC2 TCR
# T1 TCR beta (looked up): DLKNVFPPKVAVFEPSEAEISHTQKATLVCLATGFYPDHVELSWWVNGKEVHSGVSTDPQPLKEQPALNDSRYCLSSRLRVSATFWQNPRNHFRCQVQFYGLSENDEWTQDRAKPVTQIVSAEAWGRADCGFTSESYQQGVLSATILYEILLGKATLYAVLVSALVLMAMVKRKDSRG
# T2: TCR with TRBC1 on Jurkat cells (human, UniProt P01850 1-176)
# T2 construct: whole, on cells; Only the constant domain is named; also called TRBC1 expressing Jurkat cell lines; transfected Jurkat cells
# T2 TCR beta (looked up): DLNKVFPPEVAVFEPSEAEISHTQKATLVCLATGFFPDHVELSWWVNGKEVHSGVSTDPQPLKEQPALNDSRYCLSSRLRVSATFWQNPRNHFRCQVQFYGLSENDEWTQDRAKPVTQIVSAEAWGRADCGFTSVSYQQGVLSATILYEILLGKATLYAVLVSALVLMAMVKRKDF
# B1: anti-TRBC1 antibody JOVI-1 mIgG2a (TRB1B1) (antibody, V domains shown)
# VH: EVRLQQSGPDLIKPGASVKMSCKASGYTFTGYVMHWVKQRPGQGLEWIGFINPYNDDIQSNERFRGKATLTSDKSSTTAYMELSSLTSEDSAVYYCARGAGYNFDGAYRFFDFWGQGTTLTVSS
# VL: DVVMTQSPLSLPVSLGDQASISCRSSQRLVHSNGNTYLHWYLQKPGQSPKLLIYRVSNRFPGVPDRFSGSGSGTDFTLKISRVEAEDLGIYFCSQSTHVPYTFGGGTKLEIK
# notes: Mouse IgG2a monoclonal, commercially sourced; also called mJOVI-1; mouse anti-human TRBC1 clone JOVI-1 mAb
# Columns and labels:
# [1] = molecular target: T1, TRBC2 TCR on HPB-ALL cells; test: flow cytometry cell binding to HPB-ALL cells (TRBC2), signal:background ratio
# [2] = molecular target: T2, TCR with TRBC1 on Jurkat cells; test: flow cytometry on TRBC1 expressing Jurkat cells
# Method: Cells were washed with wash buffer (PBS+2% FBS) and the fluorescence of stained cells was measured on Novocyte flow cytometer. Cells were visualized on forward and sideward scatter and doublets were excluded. No secondary antibody control was used to establish background fluorescence and to gate on specific population. Background value was subtracted from main samples to get specific binding value.
binder,measurement,setting,value
B1,binding result,[1],no binding
same,EC50,[2],1 to 2 nM
